# Residues, ends and D or L forms follow the SMILES beside them.
# Tests used:
# GPIIb-IIIa [1] = biological target: T1, GPIIb-IIIa (Homo sapiens, UniProt P05106+P08514); test: Competition assay: biotinylated Fn binding to purified GPIIb-IIIa in presence of synthetic polypeptides; details: 250 μM polypeptide, 10 nM biotinylated Fn; FIG. 9
# T1 construct: GPIIb-IIIa from platelet lysates is purified by the following procedure; from tissue
# Protocol: (SEQ ID NO 11) as shown by the line with closed squares. […] The competition assays were performed in microtiter wells of a 96-well plate as described in Example 9b(1). Briefly, microtiter wells coated with purified GPIIb-IIIa receptor were maintained with 10 nM biotinylated Fn for 2 hours at room temperature in the presence of varying concentrations of D-11-T and RGDS.
# The competition assay was performed by first admixing into individual wells of a 96 well microtiter plate (Immunlon, Dynatech) 10 μg/ml of purified GPIIb-IIIa, prepared in Example 1, diluted in HEPES-saline buffer, pH 7.4, consisting of 10 mM HEPES, 150 mM NaCl, 1 mM CaCl2 and 1 mM MgCl2. […]
# The Fn-peptide admixtures were maintained in GPIIb-IIIa-coated wells for 2 hours at room temperature to allow the biotinylated Fn to bind to the receptor. Following this maintenance period, the reacted wells were washed as described above and the amount of biotinylated Fn bound to GPIIb-IIIa was determined by admixing 0.1 ml avidin bound to biotinylated horseradish peroxidase H (Hrp) (Sigma, St. Louis, Mo.) at a 1:2000 dilution to form an avidin-biotinylated Fn admixture. […] After maintaining the color developing-reaction admixture for 10 minutes at 20° C., the reaction was stopped with the admixture of 2N H2 SO4, and the stopped reactions were measured for absorbance as described in Example 3a. […]
# GPIIb-IIIa [2] = biological target: T1, GPIIb-IIIa; test: Interaction of 125I-labelled ligands with GPIIb-IIIa coated microtiter wells (Table 3); format: binding; details: 125I-labelled ligand
# Protocol: Incubate the GPIIb-IIIa with plate for 1 hour at room temperature, then dump unbound and block with 150 ul of 5% BSA in the same buffer for 1 hour at room temperature. Wash three times with 150 μl of Tyrode's buffer with 5 mM HEPES, 1 mM MgCl2 1 mg/ml dextrose, 1 mg/ml BSA. Add 50 μl of ^125 I fusion protein (125 mg/ml) at varied concentration (4×10^-7 to 1×10^-10 M). Incubate 4 hours to overnight at room temperature (with lead shield).
# Carefully remove radioactive samples and wash 3 times with 150 μl Tyrodes with 5 mM HEPES, 1 mM MgCl2, 1 mg/ml dextrose, 1 mg/ml BSA. Count with a Gamma Counter and elute by boiling in SDS-PAGE loading Buffer.
# To determine if the insert coded polypeptide containing fibronectin residues 1255-1456 bound GPIIb-IIIa, the capacity of microtiter wells coated with purified GPIIb-IIIa to bind the radiolabelled fusion-protein preparation was ascertained (Table 3). In addition, the radiolabelled material bound to the insolubilized GPIIb-IIIa was recovered and analyzed by SDS-PAGE followed by radioautography. […] The isolated protein products were a mixture of insert coded polypeptides containing fusion protein and maltose binding protein breakdown products. only those bands containing the insert-coded polypeptide bound to the insolubilized GPIIb-IIIa and that binding was inhibitable by either EDTA or the monoclonal antibody FnI-16.
# [3] = biological target: GPIIb-IIIa (Homo sapiens (Human)) (UniProt P08514); test: 125I-labelled ligand on GPIIb-IIIa-coated wells; no inhibitor
# [4] = biological target: GPIIb-IIIa (Homo sapiens (Human)) (UniProt P08514); test: 125I-labelled ligand on GPIIb-IIIa-coated wells; inhibitor Mab 16.12
# [5] = biological target: GPIIb-IIIa (Homo sapiens (Human)) (UniProt P08514); test: 10 nM biotinylated Fn on GPIIb-IIIa-coated wells, avidin-HRP detection
# [6] = biological target: GPIIb-IIIa (Homo sapiens (Human)) (UniProt P08514); test: 125I-labelled ligand on GPIIb-IIIa-coated wells; inhibitor 2 mM GDTA (so in the source)
# [7] = biological target: GPIIb-IIIa (Homo sapiens (Human)) (UniProt P08514); test: competition with 10 nM biotinylated Fn on GPIIb-IIIa-coated wells
compound,measurement,setting,value
CC[C@H](C)[C@H](NC(=O)[C@H](CO)NC(=O)[C@H](CC(N)=O)NC(=O)[C@H](CCCNC(=N)N)NC(=O)[C@H](CO)NC(=O)[C@H](Cc1c[nH]cn1)NC(=O)[C@@H]1CCCN1C(=O)[C@@H](NC(=O)[C@H](CCCNC(=N)N)NC(=O)[C@@H](N)CC(=O)O)C(C)C)C(=O)N[C@H](C(=O)O)[C@@H](C)O [D-11-T] (H-DRVPHSRNSIT-OH),inhibition of binding of biotinylated Fn to GPIIb-IIIa,GPIIb-IIIa [1],greater than 80%
Fibronectin: intact Fn isolated from fresh human citrated plasma on gelatin-sepharose,Counts ×10^-3,GPIIb-IIIa [2]; inhibitor 2 mM EDTA,8 Counts ×10^-3
same,Counts ×10^-3,GPIIb-IIIa [2]; inhibitor Mab 16.12,12 Counts ×10^-3
same,Counts ×10^-3,GPIIb-IIIa [2]; no inhibitor,42 Counts ×10^-3
"fibronectin (Fn), intact, isolated from fresh human citrated plasma (from UniProt P02751) (ligand)",Counts ×10^-3 (counts ×10^-3),[3],42
same,Counts ×10^-3 (counts ×10^-3),[4],12
same,absorbance at 490 nm (absorbance at 490 nm),[5],2.7
same,Counts ×10^-3 (counts ×10^-3),[6],8
polypeptide DRVPHSR,percent inhibition of control binding at 200 µM polypeptide,[7],35 to 40%

# Source: patent US5773574A, “Polypeptides for promoting cell attachment” (The Scripps Research Institute, priority 1991, dated 1998)
